In publication PMC10767740:
pKd: −log10 of the molar value.

Assays:
TDP-43 monomer (TDP-M) = assay: SPR; settings: protein immobilized on CM5; SPR Biacore 8K, CM5 chip, protein amine-coupled (30 ug/mL in NaAc pH 4.0); TG12 7.8-8000 nM in 1x PBS + 0.02% Tween-20; 120 s association and dissociation; 1:1 …
[1] = test system: TDP-43 native oligomer (NA-O); assay: SPR; settings: protein immobilized on CM5, SPR Biacore 8K, CM5 chip, protein amine-coupled (30 ug/mL in NaAc pH 4.0), TG12 7.8-8000 nM in 1x PBS + 0.02% Tween-20, 120 s association and dissociation, 1:1 …

Chain of TDP-43 monomer (TDP-M) (chain, as listed by the source): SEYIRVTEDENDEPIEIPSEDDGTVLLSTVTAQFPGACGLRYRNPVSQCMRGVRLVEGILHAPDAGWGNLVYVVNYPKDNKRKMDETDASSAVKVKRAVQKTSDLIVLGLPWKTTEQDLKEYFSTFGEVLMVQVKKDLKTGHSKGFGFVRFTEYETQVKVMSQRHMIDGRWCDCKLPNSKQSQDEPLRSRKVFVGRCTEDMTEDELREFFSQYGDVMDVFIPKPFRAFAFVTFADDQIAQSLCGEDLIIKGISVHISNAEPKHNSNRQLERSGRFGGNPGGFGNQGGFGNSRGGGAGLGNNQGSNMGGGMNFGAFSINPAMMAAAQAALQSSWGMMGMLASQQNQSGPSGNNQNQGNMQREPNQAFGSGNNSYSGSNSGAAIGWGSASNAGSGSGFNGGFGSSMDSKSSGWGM

Question: What does the source list for TG12?
Answer: pKd (TDP-43 monomer (TDP-M)): 6.81; pKd [1]: 6.90
